Source: patent US9347942B2, “Ultrasensitive cell based sensors and uses thereof” (CANVAX BIOTECH SL, priority 2010, dated 2016)

Tests used:
Type in all cases: cell-based, Rat
[1] = system: anti-TNP IgE labelled RBL2H3-hGB cells; experiment: IgE-allergen sensor, granzyme B release (Example 16); conditions: substrate 1 uM
Description: This example describes the use of the sensor for testing modulators of mast cells granule exocytosis widely used to find novel anti-allergic compounds as illustrated in FIG. 1. RBL2H3 were stably transfected with human granzyme B under the control of hCMV-MoLV5′LTR chimeric promoter as described in example 3. A mouse IgE monoclonal antibody against trinitrophenyl hapten was purified from IgELb4 hybridoma purchased from ATCC (TIB-141). TNP-N-hydroxysuccinimide esther was purchased from Biosearch Technologies Inc and conjugated to bovine serum albumin (BSA) using a standard protocol. Conjugation was determined at pH 7.0 by measuring TNP absorbance at 348 nm using 15400 units per mol per 10 mm light pass length as the extinction coefficient of TNP. Molar ratio of TNP to BSA in the TNP-BSA conjugate was calculated assuming the molecular weight of BSA is 60000. Sensor cells were cultivated as adherent cells for 48 hours in 6 well plates and then washed with HBSS and harvested by pippeting. 500.000 cells were labelled with anti-TNP IgE at 1 ug/ml_in HBSS for 60 minutes at 37 Celsius degrees, washed with 10 mL of HBSS, centrifuged and pellet was resuspended in 1 mL of HBSS. In a black wall 384 well plate 10 uL of serial dilutions of TNP-BSA in HBSS were added each containing the FRET-based granzyme B substrate FAM-[…]TAMRA (FAM-[…]-TAMRA) at 1 uM final concentration whose cleavage was detected by fluorescence using excitation at 485 nm and emission at 535 nm. Dilutions of TNP-BSA tested were: 1 ug/mL, 1 ng/mL, 1 pg/mL and 1 fg/mL. To each well 10 uL (5000 cells) of anti-TNP IgE labelled cells were added and plates were incubated at 37 Celsius degrees in a BMG-Labtech microplate fluorimeter. Microplate was read at 0, 15, 30, 45 and 60 minutes. The following controls were included: (1) wells with anti-TNP IgE labelled cells plus granzyme B substrate but without TNP-BSA; (2) wells with non-labelled cells plus granzyme B substrate and TNP-BSA at 1 ug/ml_; (3) wells with granzyme B substrate and TNP-BSA at 1 ug/ml_but no cells. Each well was included by triplicate.

RBL-2H3 cells [2] = experiment: Ionomycin-induced release of granule stored protease reporters from stable cell lines (Example 5); conditions: stable RBL-2H3, 10 uM ionomycin 1 hour, supernatant equivalent to 100.000 cells, AMC substrate
Description: As either tryptase-like enzymes, chymase-like enzymes, elastase-like enzymes or asp-ase like enzymes are useful for the methods of the present invention we selected human granzyme A (tryptase-like enzyme); human granzyme B (Asp-ase-like enzyme); human chymase (chymase-like enzyme) and human proteinase 3 (elastase-like enzyme) for further examples. Vectors were developed for stable expression of human granzyme A, human granzyme B, human chymase and human proteinase 3 under the control of hCMV-MoMLV5′LTR chimeric promoter. A hygromycin resistance cassette was included in the vector backbone for selection of stable populations of cells. The vector also included an IRES-NGFR cassette cloned downstream of granule stored protease reporter and thus, under the control of hCMV-MoMLV5′LTR promoter for flow cytometry and/or selection by MACS of stable cells expressing either human granzyme A or human granzyme B or human chymase or human proteinase 3. Each vector was individually electroporated using a microporator (Digital Bio Technology, South Korea) into RBL-2H3 and after 48 hours hygromycin at 1500 ug/mL was added to culture for selection. After selection for about 2 weeks cells were analysed by flow cytometry (Guava Technologies, USA) with an antibody against NGFR coupled to FITC. Positive population where magnetically separated by MACS using anti-NGFR-MACS sup.R (Miltenyi Biotec, Germany). Sorted populations were again analysed again by flow cytometry to check the sorting efficiency. Percentage of NGFR positive cells was always higher than 65 percent. Cells were seeded the night before experiment in 24 well microplates at 650.000 cells per well in 800 microliters of complete cell culture medium. Next day cells were washed with HBSS buffer and were treated with 10 uM ionomycin for 1 hour at 37 Celsius degrees in 200 uL of HBSS buffer and after centrifugation at 400 g for 5 minutes supernatants were analysed for activity with specific fluorescent substrates. Controls of cells incubated with HBSS buffer only were included. Fluorescent substrates were: VANR-AMC for granzyme A; PEEI-AMC for human neutrophil elastase; PTSY-AMC for human chymase; VADC-AMC for human proteinase 3 and IEPD-AMC for human granzyme B. Released AMC was measured by excitation at 360 nm and emission at 460 nm in a BMG Labtech microplate fluorimeter in 96 well microplates using 125 microliters of supernatant and 125 microliters of specific substrate at 400 micromol per liter in HBSS buffer. Microplates were incubated at 37 Celsius degrees on the reader and were kinetically read at 0, 15, 30, 45 and 60 minutes. Control wells with substrate only in HBSS buffer were included to subtract autofluorescence of substrates to both cells treated with ionomycin and to cells treated with HBSS buffer only. Autofluorescence of peptide substrates in HBSS buffer was about 3000 while fluorescence of cells treated with HBSS buffer only for 60 minutes at 37 Celsius degrees was about 5000, that is basal release in the absence of exocytosis modulator was about 2000. In contrast, fluorescence of ionomycin-induced release of human granzymes A and B was about 20.000 for a signal to background of 10 when using the supernatant equivalent to 100.000 cells; fluorescence of ionomycin-induced release of human chymase was about 30.000 for a signal to background of 15 when using the supernatant equivalent to 100.000 cells and fluorescence of ionomycin-induced release of human proteinase 3 was about 12.000 for a signal to background of 6 when using the supernatant equivalent to 100.000 cells. Thus, tryptase-like enzymes, chymase-like enzymes, elastase-like enzymes or asp-ase like enzymes can be stably expressed into granules of hemopoyetic cells with professional regulated exocytosis and such granule stored proteases are released by exocytosis modulators to produce sensors with good signal to background ratios using specific AMC-coupled peptide substrates. […]

RBL-2H3 cells [3] = experiment: Activity of granule stored protease reporters released by ionomycin, transient transfection (Example 4); conditions: transiently transfected RBL-2H3, 650.000 cells, 10 uM ionomycin 1 hour, supernatant
Description: Vectors were developed to express human granzyme A, M, H and K and human neutrophil elastase, human chymase, human cathepsin G and human proteinase 3 under the control of hCMV-MoMLV5′LTR chimeric promoter and RBL-2H3 cells were individually transfected by electroporation using a microporator (Gentelbio, South Korea) with the above plasmids and also with human granzyme B plasmid as control and with cytosolically truncated hNGFR receptor as a surface tag for determination of the percentage of transfection by flow cytometry with a anti-hNGFR monoclonal antibody conjugated to FITC (Miltenyi Biotec, Germany). After 48 hours cells were harvested by pipetting, washed with HBSS buffer and counted. 650.000 cells in 200 microliters of HBSS buffer were treated in suspension with 10 uM ionomycin for 1 hour and after centrifugation at 400 g for 5 minutes the supernatants were analysed for activity with specific fluorescent substrates. Controls of cells incubated with HBSS buffer only were included. Fluorescent substrates were specific tetrapeptides conjugated to 7-Amido-4-Methylcoumarin (AMC) and were custom synthesized by a custom peptide supplier. Specific substrates were: VANR-AMC for granzyme A; KVPL-AMC for granzyme M; PTSY-AMC for granzyme H; YRFK-AMC for granzyme K; PEEI-AMC for human neutrophil elastase; PTSY-AMC for human chymase; PTSY-AMC for human cathepsin G; VADC-AMC for human proteinase 3 and IEPD-AMC for human granzyme B. Released AMC was measured by excitation at 360 nm and emission at 460 nm in a BMG Labtech microplate fluorimeter in 96 well microplates using 125 microliters of supernatant and 125 microliters of specific substrate at 400 micromol per liter in HBSS buffer. Microplates were incubated at 37 Celsius degrees on the reader and were kinetically read at 0, 15, 30, 45 and 60 minutes. Percentage of transient electroporation measured using truncated hNGFR tag and anti-hNGFR-FITC antibody was about 60 percent.

## TNP-BSA: trinitrophenyl hapten conjugated to bovine serum albumin, model allergen
[1]; TNP-BSA 1 pg/mL, 5000 cells with anti-TNP IgE
  Fluorescence after 30 minutes at 37° C.: 35884
[1]; TNP-BSA 1 ng/mL, 5000 cells with anti-TNP IgE
  Fluorescence after 30 minutes at 37° C.: 34556
[1]; TNP-BSA 1 ug/mL, 5000 cells with anti-TNP IgE
  Fluorescence after 30 minutes at 37° C.: 30942
[1]; TNP-BSA 1 ug/mL, 5000 cells without anti-TNP IgE (non-labelled)
  Fluorescence after 30 minutes at 37° C.: 2935
[1]; TNP-BSA 1 fg/mL, 5000 cells with anti-TNP IgE
  Fluorescence after 30 minutes at 37° C.: 29826

B1: human granzyme A: Tryptase-like serine protease (GZMA, NM_006144) used as granule stored reporter (protein, UniProt P12544 29-262, looked up)
Granzyme A: IIGGNEVTPHSRPYMVLLSLDRKTICAGALIAKDWVLTAAHCNLNKRSQVILGAHSITREEPTKQIMLVKKEFPYPCYDPATREGDLKLLQLMEKAKINKYVTILHLPKKGDDVKPGTMCQVAGWGRTHNSASWSDTLREVNITIIDRKVCNDRNHYNFNPVIGMNMVCAGSLRGGRDSCNGDSGSPLLCEGVFRGVTSFGLENKCGDPRGPGVYILLSKKHLNWIIMTIKGAV
RBL-2H3 cells [2]
  fluorescence of ionomycin-induced release: about 20.000
  signal to background: 10
RBL-2H3 cells [3]
  enzymatic activity of released reporter with specific AMC substrate: higher activity than granzyme K

B2: neutrophil elastase: Elastase-like serine protease (ELA2, NM_001972) used as granule stored reporter (protein, UniProt P08246 30-267, looked up)
Neutrophil elastase: IVGGRRARPHAWPFMVSLQLRGGHFCGATLIAPNFVMSAAHCVANVNVRAVRVVLGAHNLSRREPTRQVFAVQRIFENGYDPVNLLNDIVILQLNGSATINANVQVAQLPAQGRRLGNGVQCLAMGWGLLGRNRGIASVLQELNVTVVTSLCRRSNVCTLVRGRQAGVCFGDSGSPLVCNGLIHGIASFVRGGCASGLYPDAFAPVAQFVNWIDSIIQRSEDNPCPHPRDPDPASRTH
RBL-2H3 cells [3]
  enzymatic activity of released reporter with specific AMC substrate: equivalent activity that was higher than that of human granzyme M

B3: human proteinase 3: Elastase-like serine protease (PRTN3, NM_002777) used as granule stored reporter (protein, UniProt P24158 28-248, looked up)
Myeloblastin: IVGGHEAQPHSRPYMASLQMRGNPGSHFCGGTLIHPSFVLTAAHCLRDIPQRLVNVVLGAHNVRTQEPTQQHFSVAQVFLNNYDAENKLNDVLLIQLSSPANLSASVATVQLPQQDQPVPHGTQCLAMGWGRVGAHDPPAQVLQELNVTVVTFFCRPHNICTFVPRRKAGICFGDSGGPLICDGIIQGIDSFVIWGCATRLFPDFFTRVALYVDWIRSTLR
RBL-2H3 cells [2]
  fluorescence of ionomycin-induced release: about 12.000
  signal to background: 6
RBL-2H3 cells [3]
  enzymatic activity of released reporter with specific AMC substrate: equivalent activity that was higher than that of human granzyme M

B4: human chymase: Chymase-like serine protease (CMA1, NM_001836) used as granule stored reporter (protein, UniProt P23946 22-247, looked up)
Chymase: IIGGTECKPHSRPYMAYLEIVTSNGPSKFCGGFLIRRNFVLTAAHCAGRSITVTLGAHNITEEEDTWQKLEVIKQFRHPKYNTSTLHHDIMLLKLKEKASLTLAVGTLPFPSQFNFVPPGRMCRVAGWGRTGVLKPGSDTLQEVKLRLMDPQACSHFRDFDHNLQLCVGNPRKTKSAFKGDSGGPLLCAGVAQGIVSYGRSDAKPPAVFTRISHYRPWINQILQAN
RBL-2H3 cells [2]
  fluorescence of ionomycin-induced release: about 30.000
  signal to background: 15
RBL-2H3 cells [3]
  enzymatic activity of released reporter with specific AMC substrate: highest activity
